In the assay the target is T1, plasmin (human, UniProt P00747 97-810, limits assumed).
T1 construct: Active plasmin is a two-chain, disulfide-linked form of plasminogen; also called human plasmin
The assay is described as follows: inhibition constant for human plasmin; method not described.

By Ki is commonly meant the dissociation constant of the complex between target and ligand, obtained from inhibition or displacement.

T1 sequence (P00747 97-810 limits assumed): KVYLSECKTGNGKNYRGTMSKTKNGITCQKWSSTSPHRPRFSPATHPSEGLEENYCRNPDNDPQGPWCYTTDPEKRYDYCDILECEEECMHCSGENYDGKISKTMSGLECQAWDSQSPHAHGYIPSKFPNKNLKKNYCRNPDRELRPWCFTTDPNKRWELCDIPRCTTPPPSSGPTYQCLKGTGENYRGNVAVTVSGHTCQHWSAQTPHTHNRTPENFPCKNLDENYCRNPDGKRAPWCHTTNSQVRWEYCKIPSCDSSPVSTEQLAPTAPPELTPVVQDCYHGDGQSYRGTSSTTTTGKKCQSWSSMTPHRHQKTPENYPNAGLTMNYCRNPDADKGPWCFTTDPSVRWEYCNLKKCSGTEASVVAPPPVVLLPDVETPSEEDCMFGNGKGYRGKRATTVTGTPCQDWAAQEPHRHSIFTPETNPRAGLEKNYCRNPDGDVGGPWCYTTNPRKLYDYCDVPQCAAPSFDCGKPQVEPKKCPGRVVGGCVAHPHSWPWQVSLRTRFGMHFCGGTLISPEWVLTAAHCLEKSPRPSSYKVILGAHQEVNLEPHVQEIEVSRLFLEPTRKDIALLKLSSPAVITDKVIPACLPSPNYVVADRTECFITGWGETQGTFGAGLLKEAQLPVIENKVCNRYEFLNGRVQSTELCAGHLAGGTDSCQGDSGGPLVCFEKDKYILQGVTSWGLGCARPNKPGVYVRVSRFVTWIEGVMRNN

B1: DX-1000 (designed binder)
chain: MHSFCAFKAETGPCRARFDRWFFNIFTRQCEEFIYGGCEGNQNRFESLEECKKMCTRD
notes: Engineered Kunitz domain on the human LACI-K1 framework; also called DX-1000 (unmodified)
Consider B1, for which the inhibition constant Ki is 0.088 nM.
